In US20110027337A1 (IFXA A S, published 2011):

T1: PIfXa (KPI A-k1, Kunitz protease inhibitor purified from potato tuber, Solanum tuberosum cv. Kuras; SEQ ID NO:1)
T1 sequence: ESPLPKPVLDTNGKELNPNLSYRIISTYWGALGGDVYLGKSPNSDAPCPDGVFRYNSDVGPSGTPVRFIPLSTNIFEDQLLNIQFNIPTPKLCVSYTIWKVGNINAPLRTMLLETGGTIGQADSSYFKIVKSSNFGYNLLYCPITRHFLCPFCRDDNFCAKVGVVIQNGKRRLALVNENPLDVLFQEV

T2: fraction B11SI (cation exchange fraction from potato juice; major inhibitor KPI A-k1, SEQ ID NO:1)
T2 sequence: T1 sequence

T3: factor Xa (fXa)
T3 chain 1: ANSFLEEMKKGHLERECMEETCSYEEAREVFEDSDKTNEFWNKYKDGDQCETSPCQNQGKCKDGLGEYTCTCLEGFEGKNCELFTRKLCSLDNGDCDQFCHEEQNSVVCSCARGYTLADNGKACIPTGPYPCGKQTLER
T3 chain 2: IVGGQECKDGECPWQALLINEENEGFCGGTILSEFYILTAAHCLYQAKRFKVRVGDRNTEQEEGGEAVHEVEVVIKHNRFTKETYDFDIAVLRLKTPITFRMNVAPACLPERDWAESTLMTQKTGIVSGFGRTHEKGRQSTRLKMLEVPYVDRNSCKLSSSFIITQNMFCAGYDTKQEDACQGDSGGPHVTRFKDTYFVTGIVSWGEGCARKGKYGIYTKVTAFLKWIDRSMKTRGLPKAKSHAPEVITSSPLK

B1: fraction B11SI (cation exchange fraction from potato juice; major inhibitor KPI A-k1, SEQ ID NO:1) (other)
chain: T1 sequence
notes: A chromatography fraction, not a pure protein; By nESI the highest peak is 20,830 Da (KPI A-k1 N-terminal variant 3), with further peaks for variants 4, 2 and 1; also called B1151

How the values were obtained:
[1] = system: T1, PIfXa (KPI A-k1, Kunitz protease inhibitor purified from potato tuber, Solanum tuberosum cv. Kuras; SEQ ID NO:1)
[2] = system: T2, fraction B11SI (cation exchange fraction from potato juice; major inhibitor KPI A-k1, SEQ ID NO:1)
factor Xa (fXa) [3] = target: T3, factor Xa (fXa); assay: amidolytic activity assay: chromozym t-PA hydrolysis by 50 nM fXa, competitive inhibition fit (GraphPad Prism)
factor Xa (fXa) [4] = target: T3, factor Xa (fXa); assay: amidolytic activity assay: chromozym t-PA hydrolysis by 50 nM fXa, competitive inhibition fit, in the presence of 1 U/mL heparin

Row | Ki (factor Xa (fXa) [3]) | Ki (factor Xa (fXa) [4]) | Molecule | reaction rate of chromozym t-PA hydrolysis by 25 nM fXa with 100 µg/mL PIfXa, no antibody (Ctrl without PIfXa 19.2) [1] | reaction rate of chromozym t-PA hydrolysis by fXa with PIfXa, before addition of antibody (sample PlfXa 1:1) [1] | reaction rate of chromozym t-PA hydrolysis by fXa with PIfXa, before addition of antibody (sample PlfXa 1:2.5) [1] | reaction rate of chromozym t-PA hydrolysis by fXa with PIfXa, before addition of antibody (sample PlfXa 1:5) [1] | reaction rate of chromozym t-PA hydrolysis by fXa with PIfXa, before addition of antibody (sample PlfXa 1:10) [1] | KM of chromozym t-PA hydrolysis by fXa with B11SI (fXa alone 0.23) [2] | KM of chromozym t-PA hydrolysis by fXa with B11SI and heparin [2] | Vmax of chromozym t-PA hydrolysis by fXa with B11SI (fXa alone 8.8 · 10^-2) [2] | Vmax of chromozym t-PA hydrolysis by fXa with B11SI and heparin [2]
1 | – | – | factor Xa (fXa) | 2 µM/min | 2.1 µM/min | 2.1 µM/min | 2.2 µM/min | 1.4 µM/min | 1250 µM | 1180 µM | 0.026 mM/min | 0.023 mM/min
2 | 114 nM | 101 nM | B1 | – | – | – | – | – | – | – | – | –
